The text below walks through data of article PMC4293902, “Biochemical and structural characterization of the apicoplast dihydrolipoamide dehydrogenase of Plasmodium falciparum” (Bioscience Reports, 2015).

Data set [1] concerns the target Plasmodium falciparum apicoplast dihydrolipoamide dehydrogenase (PfaE3), recombinant mature-length, N-terminal His-tag (Plasmodium falciparum 3D7). The data set can be described thus: AUC; sedimentation equilibrium, 17000 rpm, 4°C, 4.7 to 22.7 μM PfaE3; 50 mM potassium phosphate, 250 mM NaCl, 2 mM EDTA, pH 7.4; interference optics, single species model in SEDPHAT.
Data set [2] shares this target. The data set can be described thus: SEC; HiLoad 16/60 Superdex 200, calibrated; 50 mM potassium phosphate, 150 mM NaCl, 2 mM EDTA, pH 7.4; Ni-NTA eluate applied. Background: SEC sorts molecules by how far they enter the pores of the column.
Data set [3] shares this target. The data set can be described thus: SAXS; EMBL beamline X33, DESY; 10°C; PfaE3 at 9, 8, 6, 5 and 4 μM; Guinier, p(r) and ab initio DAM with P2 symmetry.
Substrate in data set [4]: NC(=O)C1=CN([C@@H]2O[C@H](COP(=O)(O)OP(=O)(O)OC[C@H]3O[C@@H](n4cnc5c(N)ncnc54)[C@H](O)[C@@H]3O)[C@@H](O)[C@H]2O)C=CC1
Briefly: purified protein. Format: biochemical, Plasmodium falciparum. The conditions noted are these: reverse reaction, 2 mM lipoamide, 50 mM potassium phosphate, 1 mM EDTA, pH 7, 25°C.

Substrate in data set [5]: NC(=O)CCCC[C@@H](S)CCS
The data set can be described thus: purified protein. Format: biochemical, Plasmodium falciparum. As to conditions: forward reaction, 2 mM NAD+, 50 mM potassium phosphate, 1 mM EDTA, pH 8, 25°C.

Substrate in data set [6]: NC(=O)CCCC[C@@H]1CCSS1
The data set can be described thus: purified protein. Format: biochemical, Plasmodium falciparum. As to conditions: reverse reaction, 200 μM NADH, 50 mM potassium phosphate, 1 mM EDTA, pH 7, 25°C.

Substrate in data set [7]: NC(=O)c1ccc[n+]([C@@H]2O[C@H](COP(=O)(O)OP(=O)(O)OC[C@H]3O[C@@H](n4cnc5c(N)ncnc54)[C@H](O)[C@@H]3O)[C@@H](O)[C@H]2O)c1
Briefly: purified protein. Format: biochemical, Plasmodium falciparum. As to conditions: forward reaction, 2 mM DHLA, 50 mM potassium phosphate, 1 mM EDTA, pH 8, 25°C.

For orientation: stoichiometry N means the number of molecules, sites or subunits per partner or assembly. For orientation: Km means the concentration of substrate that gives half-maximal velocity. The term kcat denotes the maximal rate divided by the concentration of active sites.

As for “Plasmodium falciparum apicoplast dihydrolipoamide dehydrogenase (PfaE3), recombinant mature-length, N-terminal His-tag (enzyme)”, the stoichiometry N in data set [1], in data set [2] and in data set [3] was 2 throughout.

B1: PfaE3 (P. falciparum apicoplast E3, dihydrolipoamide dehydrogenase) (Plasmodium falciparum 3D7) (protein)
chain: LKGSTQNIMNINEKEYDLAIIGCGVGGHAAAINAMERNLKVIIFAGDENCIGGTCVNVGCIPSKALLYATNKYRELKNLDKLYYYGIHSNIFQNNKNTEIENNQLVSNSFQINITKLKEYTQSVIDKLRNGISHGFKTLKFNKNSEHVQVIYEHGQLLDKNTIKSKKSGNTYKVKNIIIATGSVPNIPNNVEIDDKSVFTSDMAVKLVGLKNYMSIIGMGIIGLEFADIYTALGSEITFLEYSSELLPIIDNDVAKYFERVFLKNKPVNYHLNTEVKYIKASKNNNPVIIGYSHRTGNDDNEKKNMTDVKELYVDSCLVATGRNPNTQNLGLEKLKIQMNRGYVSVNDNLQVKMENNEIYDNIFCIGDANGKQMLAHTASYQALKVIDFIEKKEKKNVNINVENNLSKPILYKNIPSVCYTNPELAFIGLTEKEAKVLYPDNVGVEISYYKSNSKILCENNISLNNNKKNNSYNKGQYNINDNTNGMVKIIYKEDTKEILGMFIVGNYASVLIHEAVLAINLKLSAFDLAYMVHSHPTVSEVLDTAFKSISKIRTH
notes: mature-length, apicoplast-targeting peptide removed; given as 110-667 in Results but 118-667 in Methods (forward primer at nt 331, i.e. codon 111); N-terminal 6-His tag kept (pQE30), expressed in E. coli NovaBlue (DE3); about 64 kDa, homodimer 128 kDa; 566 residues with tag; some C-terminally truncated form present
For B1, the Km came out at 15 ± 2 µM in data set [4], 1160 ± 105 µM in data set [5], 841 ± 97 µM in data set [6] and 96 ± 12 µM in data set [7]. In addition, the catalytic constant (kcat) in data set [4] worked out at 77.8 s⁻¹; in data set [5] it was 110 s⁻¹; in data set [6], 97 s⁻¹; in data set [7], 110 s⁻¹.
